The text below walks through data of publication PMC4975489, “The Arabidopsis Protein Phosphatase PP2C38 Negatively Regulates the Central Immune Kinase BIK1” (PLoS Pathogens, 2016).

The target of this test is T1, recombinant GST-BIK1 (Arabidopsis thaliana, UniProt O48814 1-395).
T1 construct: BIK1, receptor-like cytoplasmic kinase of Arabidopsis thaliana; source: recombinant protein
T1 sequence (looked up): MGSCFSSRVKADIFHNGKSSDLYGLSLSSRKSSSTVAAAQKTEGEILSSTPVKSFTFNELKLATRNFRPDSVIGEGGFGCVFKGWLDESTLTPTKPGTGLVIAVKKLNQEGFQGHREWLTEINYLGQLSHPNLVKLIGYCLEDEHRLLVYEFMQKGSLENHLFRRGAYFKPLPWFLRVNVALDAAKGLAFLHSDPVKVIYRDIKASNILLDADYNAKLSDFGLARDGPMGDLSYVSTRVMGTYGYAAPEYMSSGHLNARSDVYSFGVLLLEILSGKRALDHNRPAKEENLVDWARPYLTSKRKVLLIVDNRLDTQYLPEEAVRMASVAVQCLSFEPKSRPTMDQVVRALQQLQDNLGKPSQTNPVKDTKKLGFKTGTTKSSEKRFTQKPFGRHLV
Put plainly: pull-down; recombinant MBP-PP2C38 and GST-BIK1 in column buffer (50 mM Tris pH 7.5, 50 mM NaCl, 0.2% IGEPAL CA-630), 4°C; MBP pull-down on amylose resin. The settings on record: both partners purified.

B1: recombinant MBP-PP2C38 (enzyme, Arabidopsis thaliana, UniProt Q9LHJ9 1-385, looked up)
chain: MVSSATILRMVAPCWRRPSVKGDHSTRDANGRCDGLLWYKDSGNHVAGEFSMSVIQANNLLEDHSKLESGPVSMFDSGPQATFVGVYDGHGGPEAARFVNKHLFDNIRKFTSENHGMSANVITKAFLATEEDFLSLVRRQWQIKPQIASVGACCLVGIICSGLLYIANAGDSRVVLGRLEKAFKIVKAVQLSSEHNASLESVREELRSLHPNDPQIVVLKHKVWRVKGIIQVSRSIGDAYLKKAEFNREPLLAKFRVPEVFHKPILRAEPAITVHKIHPEDQFLIFASDGLWEHLSNQEAVDIVNTCPRNGIARKLIKTALREAAKKREMRYSDLKKIDRGVRRHFHDDITVIVVFLDSHLVSRSTSRRPLLSISGGGDLAGPST
notes: PP2C38, protein phosphatase 2C of Arabidopsis thaliana (At3g12620); 'PP2C38 CDS was inserted between BamHI and SalI restriction sites of pMAL-c4E'; source: recombinant protein (PP2C38 CDS in pMAL-c4E, NEB)
For B1, the binding result is “binds”.
